# In ChEMBL document CHEMBL1137638, “TEM-158 (CMT-9), a new member of the CMT-type extended-spectrum beta-lactamases” (Antimicrob Agents Chemother, 2007):
# Tests used:
# [1] = substrate: CC(C)(O/N=C(\C(=O)N[C@@H]1C(=O)N2C(C(=O)[O-])=C(C[n+]3ccccc3)CS[C@H]12)c1csc(N)n1)C(=O)O; details: Escherichia coli; DH5alpha CL1179
# [2] = substrate: CC(=O)OCC1=C(C(=O)O)N2C(=O)[C@@H](NC(=O)Cc3cccs3)[C@H]2SC1; assay: (§1) Activity of Escherichia coli DH5alpha beta-lactamase TEM-158 by microacidimetric method
# [3] = substrate: CC(C)(O/N=C(\C(=O)N[C@@H]1C(=O)N2C(C(=O)[O-])=C(C[n+]3ccccc3)CS[C@H]12)c1csc(N)n1)C(=O)O; assay: as §1
# [4] = substrate: CC1(C)S[C@@H]2[C@H](NC(=O)Cc3ccccc3)C(=O)N2[C@H]1C(=O)O; assay: as §1
# [5] = substrate: CC1(C)S[C@@H]2[C@H](NC(=O)[C@H](C(=O)O)c3ccsc3)C(=O)N2[C@H]1C(=O)O; assay: as §1
# [6] = substrate: CC1(C)S[C@@H]2[C@H](NC(=O)[C@H](N)c3ccc(O)cc3)C(=O)N2[C@H]1C(=O)O; assay: as §1
# [7] = substrate: CCN1CCN(C(=O)N[C@@H](C(=O)N[C@@H]2C(=O)N3[C@@H]2SC(C)(C)[C@@H]3C(=O)O)c2ccccc2)C(=O)C1=O; assay: as §1
# [8] = substrate: CC(C)(O/N=C(\C(=O)N[C@@H]1C(=O)N2C(C(=O)[O-])=C(C[n+]3ccccc3)CS[C@H]12)c1csc(N)n1)C(=O)O; details: Escherichia coli; TO799
# [9] = substrate: CC(=O)OCC1=C(C(=O)O)N2C(=O)[C@@H](NC(=O)Cc3cccs3)[C@H]2SC1; assay: (§2) Activity of Escherichia coli DH5alpha beta-lactamase TEM-1 by microacidimetric method
# [10] = substrate: CC(C)(O/N=C(\C(=O)N[C@@H]1C(=O)N2C(C(=O)[O-])=C(C[n+]3ccccc3)CS[C@H]12)c1csc(N)n1)C(=O)O; assay: as §2
# [11] = substrate: CC1(C)S[C@@H]2[C@H](NC(=O)Cc3ccccc3)C(=O)N2[C@H]1C(=O)O; assay: as §2
# [12] = substrate: CC1(C)S[C@@H]2[C@H](NC(=O)[C@H](C(=O)O)c3ccsc3)C(=O)N2[C@H]1C(=O)O; assay: as §2
# [13] = substrate: CC1(C)S[C@@H]2[C@H](NC(=O)[C@H](N)c3ccc(O)cc3)C(=O)N2[C@H]1C(=O)O; assay: as §2
# [14] = substrate: CCN1CCN(C(=O)N[C@@H](C(=O)N[C@@H]2C(=O)N3[C@@H]2SC(C)(C)[C@@H]3C(=O)O)c2ccccc2)C(=O)C1=O; assay: as §2
# [15] = substrate: CO/N=C(\C(=O)N[C@@H]1C(=O)N2C(C(=O)O)=C(COC(C)=O)CS[C@H]12)c1csc(N)n1; assay: as §2
protein,measurement,setting,value
"Beta lactamase TEM-152 (Escherichia coli), Q09Q13 (protein) MSIQHFRVALIPFFAAFCLPVFAHPETLVKVKDAEDQLGARVGYIELDLNSGKILESFRPEERFPMVSTFKVLLCGAVLSRVDAGQEQLGRRIHYSQNDLVEYSPVTEKHLTDGMTVRELCSAAITMSDNTAANLLLTTIGGPKELTAFLHNMGDHVTRLDHWEPELNEAIPNDERDTTMPAAMATTLRKLLTGELLTLASRQQLIDWMEADKVAGPLLRSALPAGWFIADKSGAGKRGSRGIIAALGPDGKPSRIVVIYTTGSQATMDERDRQIAEIGASLIKHW",kcat,[1],40 s⁻¹
"CMT-type beta lactamase (Escherichia coli), A5HJU3 (protein) MSIQHFRVALIPFFAAFCLPVFAHPETLVKVKDAEDQLGARVGYIELDLNSGKILESFRPEERFPMLSTFKVLLCGAVLSRVDAGQEQLGRRIHYSQNDLVEYSPVTEKHLTDGMTVRELCSAAITMSDNTAANLLLTTIGGPKELTAFLHNMGDHVTRLDSWEPELNEAIPNDERDTTMPAAMATTLRKLLTGELLTLASRQQLIDWMEADKVAGPLLRSALPAGWFIADKSGAGERGSRGIIAALGPDGKPSRIVVIYTTGSQATMDERDRQIAEIGASLIKHW",Km,[2],170 µM
same,kcat,[2],0.26 s⁻¹
same,kcat,[3],1.7 s⁻¹
same,Km,[4],38.1 µM
same,kcat,[4],18.5 s⁻¹
same,Km,[5],143 µM
same,kcat,[5],4.2 s⁻¹
same,Km,[6],24.8 µM
same,kcat,[6],14.4 s⁻¹
same,Km,[7],46 µM
same,kcat,[7],17.1 s⁻¹
"Beta-lactamase TEM-125 (Escherichia coli), Q6GWS8 (protein) MSIQHFRVALIPFLAAFCLPVFAHPETLVKVKDAEDQLGARVGYIELDLNSGKILESFRPEERFPMLSTFKVLLCGAVLSRVDAGQEQLGRRIHYSQNDLVEYSPVTEKHLTDGMTVRELCSAAITMSDNTAANLLLTTIGGPKELTAFLHNMGDHVTRLDSREPELNEAIPNDERDTTMPAAMATTLRKLLTGELLTLASRQQLIDWMEADKVAGPLLRSALPAGWFIADKSGAGERGSRGIIAALGPDGKPSRIVVIYTTGSQATMDERDRQIAEIGASLIKHW",kcat,[8],3.7 s⁻¹
"Beta-lactamase TEM (Escherichia coli), P62593 (protein) MSIQHFRVALIPFFAAFCLPVFAHPETLVKVKDAEDQLGARVGYIELDLNSGKILESFRPEERFPMMSTFKVLLCGAVLSRVDAGQEQLGRRIHYSQNDLVEYSPVTEKHLTDGMTVRELCSAAITMSDNTAANLLLTTIGGPKELTAFLHNMGDHVTRLDRWEPELNEAIPNDERDTTMPAAMATTLRKLLTGELLTLASRQQLIDWMEADKVAGPLLRSALPAGWFIADKSGAGERGSRGIIAALGPDGKPSRIVVIYTTGSQATMDERNRQIAEIGASLIKHW",kcat,[9],165 s⁻¹
same,kcat,[10],< 0.1 s⁻¹
same,Km,[11],34 µM
same,kcat,[11],1500 s⁻¹
same,Km,[12],36 µM
same,kcat,[12],135 s⁻¹
same,Km,[13],15 µM
same,kcat,[13],1120 s⁻¹
same,Km,[14],55 µM
same,kcat,[14],1250 s⁻¹
same,kcat,[15],< 0.1 s⁻¹
